Laboratory results published in patent publication CN112125972A.

Columns and labels:
Assay in all cases: double-antibody sandwich ELISA, R001 as detection antibody, against reference products of the different expression systems
[1] = target: E2.16 HPV16 VLPs (Human papillomavirus type 16) (UniProt P03101)
[2] = target: Y2.16 HPV16 VLPs (Human papillomavirus type 16) (UniProt P03101)
[3] = target: E1.16 HPV16 VLPs (Human papillomavirus type 16) (UniProt P03101)
[4] = target: Y1.16 HPV16 VLPs (Human papillomavirus type 16) (UniProt P03101)
[5] = target: I1.16 HPV16 VLPs (Human papillomavirus type 16) (UniProt P03101)

Measured: 抗原/蛋白比值

B1: HPV 16 R001 (antibody, V domains shown)
VH: QSVKESEGRLVTPGTPLTLTCTASGFTMSRYHMTWVRQAPGKGLEWIGIIYARNSDTYYANWAKGRFTISKTSTTVDLKITSPTIEDTATYFCARVDSDSSGAFDRLDLWGQGTLVTVSS
VL: DPMLTQTAASVEVAVGGTVTIKCQASQSIGGYLSWYQQKPGQRPKLLIYRASTLASGVPSRFKGSGSGTEYTLTFSGVECADAAAYYCQQGYTSSDINNAFGGGTEVVVK
1: all assays above
